The record followed here is US20210221878A1.

One may read the EC50 as the concentration needed to bring the measured effect to its halfway point.

Assay [1] deals with αSyn WT PFF (preformed fibrils of recombinant wild-type human α-synuclein) (human) (UniProt P37840). Put plainly: solution competition ELISA, free antibody captured on PFF plate; binding potency, PFF (ng/ml). (In general: An ELISA detects its analyte on a solid surface through an enzyme-linked reagent.)
Assay [2] has as its target full-length human recombinant wild-type α-synuclein monomer (human) (UniProt P37840). Put plainly: solution competition ELISA, free antibody captured on PFF plate; binding potency, monomer (ng/ml).
Assay [3] deals with αSyn WT PFF (preformed fibrils of recombinant wild-type human α-synuclein) (human) (UniProt P37840). Put plainly: ratio of monomer to PFF binding potency, solution competition ELISA.

Regarding Syn303 (antibody), the EC50 in assay [1] was determined as 0.109 µg/mL; in assay [2], 0.0512 µg/mL. Also, in assay [3], the Mono/PFF Ratio came to 0.47.

On to MJFR1 (antibody), for which the EC50 stood at 0.0292 µg/mL in assay [1] and 0.008 µg/mL in assay [2]. For the same substance, the Mono/PFF Ratio in assay [3] worked out at 0.27.

As for LB509 (antibody), the EC50 in assay [1] was 0.0016 µg/mL; in assay [2], 0.062 µg/mL. Moreover, the Mono/PFF Ratio in assay [3] turned out to be 38.

With MJFR14642 (antibody), the half-maximal effective concentration (EC50) stood at 0.00051 µg/mL in assay [1] and 3.66 µg/mL in assay [2]. In addition, the Mono/PFF Ratio in assay [3] was 7230.
